# T1: r-Dol m 5.02 (Dolichovespula maculata, UniProt P10737)
# T1 construct: made in house
# T1 sequence (P10737 11-215): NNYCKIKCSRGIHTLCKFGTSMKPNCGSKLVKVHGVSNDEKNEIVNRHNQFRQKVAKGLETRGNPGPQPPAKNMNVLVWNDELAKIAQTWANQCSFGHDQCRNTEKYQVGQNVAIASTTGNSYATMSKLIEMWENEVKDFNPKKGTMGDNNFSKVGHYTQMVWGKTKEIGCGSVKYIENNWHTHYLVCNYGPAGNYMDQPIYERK
# B1: r-Ag5: recombinant white faced hornet (Dolichovespula maculata) antigen 5 form 2, Dol m 5.02 (protein)
# chain: NNYCKIKCSRGIHTLCKFGTSMKPNCGSKLVKVHGVSNDEKNEIVNRHNQFRQKVAKGLETRGNPGPQPPAKNMNVLVWNDELAKIAQTWANQCSFGHDQCRNTEKYQVGQNVAIASTTGNSYATMSKLIEMWENEVKDFNPKKGTMGDNNFSKVGHYTQMVWGKTKEIGCGSVKYIENNWHTHYLVCNYGPAGNYMDQPIYERK
# Columns and labels:
# r-Dol m 5.02 = molecular target: T1, r-Dol m 5.02; test: Antibody response by direct ELISA of mice immunized with recombinant white faced hornet Ag5, wells coated with r-Dol m 5.02; format: in vivo; conditions: for Half maximal Ab titer r-Dol m 5.02: week five sera after three i.p. immunizations with rDol m 5.02 and alum; for antibody responder status: alum as adjuvant
# Experimental: Antibody response in mice of different haplotypes to recombinant hornet Ag5. Five strains of mice were immunized with recombinant (r) white faced hornet Ag5 and alum as adjuvant. […] The antibody titers (the reciprocal of the dilution yielding 50% of maximum signal extrapolated from ELISA curves in wells coated with r-Dol m 5.02 or n-Dol m 5.01) of these sera for n-(natural) and r-Ag5 are given in Table 3.
# *Sera are from week five bleeding after three intraperitoneal
# immunizations with 0.2 ml of 10 μg/ml rDol m 5.02 and alum (5 μg/ml
# in 0.05 m sodium phosphate buffer, pH 6.2, on weeks 0, 2, and 4.
# [1] = test system: r-Ag5 specific spleen cells from C3H/He mice; test: In vitro proliferation assay, spleen cells of r-Ag5-immunized C3H/He mice; format: cell-based; conditions: spleen cells from mice immunized 5 times with rAg5; blank 3130 cpm
# Experimental: FIG. 13. Stimulation index profile of C3H/He mice spleens after 5 immunizations with r-Ag5. In vitro proliferation assays were performed with peptides at three concentrations: 1×10^-5 M (open bar), 1.25×10^-6 M ("uphill" hatch), and 1.56×10^-7 M ("downhill" hatch). The corresponding concentrations of recombinant Antigen 5 were 1.0×10^-6 M, 1.25×10^-7, and 1.56×10^-8 M. The blank was 3130 cpm.
# (§1) The peptides of the invention can be tested in a proliferation assay for T cell responses. Generally, lymphocytes from a sensitized host are obtained. The host can be a mouse that has been immunized with a vespid venom antigen 5, or with a crossreactive protein, such as testes specific protein. Using techniques that are well known in the art, T lymphocyte response to the peptide can be measured in vitro. In a specific embodiment, infra, T cell responses are detected by measuring incorporation of ^3 H-thymidine, which increases with DNA synthesis associated with proliferation. Cell proliferation can also be detected using an MTT assay [Mossman, J. Immunol. Methods, 65:55-63,(1983); Niks and Otto, J. Immunol. Methods, 130:140-151 (1990)]. […] Alternatively, mRNA for lymphokines can be detected, e.g., by amplification [see Brenner, et al., Biotechniques, 7:1096 (1989)] or in situ hybridization [see, e.g., Kasaian and Biron, J. Immunol., 142:1287 (1989)]. […]
# [2] = test system: r-Ag5 specific spleen cells from P/J mice; test: In vitro proliferation assay, spleen cells of r-Ag5-immunized P/J mice; format: cell-based; conditions: spleen cells from mice immunized 5 times with rAg5; blank 1730 cpm
# Experimental: FIG. 12. Stimulation index profile of P/J mice spleens after 5 immunizations with r-Ag5. In vitro proliferation assays were performed with peptides at three concentrations: 1×10^-5 M (open bar), 1.25×10^-6 M ("uphill" hatch), and 1.56×10^-7 M ("downhill" hatch). The corresponding concentrations of recombinant Antigen 5 were 1.0 ×10^-6 M, 1.25×10^-7, and 1.56×10^-8 M. The blank was 1730 cpm.
# as §1
molecule,measurement,setting,value
B1,Half maximal Ab titer r-Dol m 5.02,r-Dol m 5.02; ASW/Sn mice (haplotype s),1 × 10^5
same,Half maximal Ab titer r-Dol m 5.02,r-Dol m 5.02; BALB/c byj mice (haplotype d),8 × 10^4
same,antibody responder status,"r-Dol m 5.02; BALB/v byj, ASW/Sn, C3H/He, and P/J mice",high antibody responders
same,Half maximal Ab titer r-Dol m 5.02,r-Dol m 5.02; C3H/He mice (haplotype k),6 × 10^3
same,Half maximal Ab titer r-Dol m 5.02,r-Dol m 5.02; C57B1/6 mice (haplotype b),1 × 10^2
same,antibody responder status,r-Dol m 5.02; C57B1/6 mice,poor antibody responder
same,Half maximal Ab titer r-Dol m 5.02,r-Dol m 5.02; P/J mice (haplotype p),2 × 10^4
same,Stimulation Index C3H/He,[1],12.3
same,Stimulation Index P/J,[2],20.8
